Test results: article PMC7467640

Experiments:
[1] = target: His239 (UniProt position 239, …); experiment: potentiometry; conditions: 298 K; 0.1 M (NaClO4); none (4 mM HClO4, titrated with carbonate-free NaOH); metal-free peptide, 0.5 mM, argon atmosphere
[2] = target: His224 (UniProt position 224, …); experiment: potentiometry; conditions: 298 K; 0.1 M (NaClO4); none (4 mM HClO4, titrated with carbonate-free NaOH); metal-free peptide, 0.5 mM, argon atmosphere

GHFTVNPEIQPGAQRLHE
pKa [1]: 6.16 | pKa [2]: 6.76
